# Measurements: patent publication US20230416363A1 (KADMON, published 2023)
# B1: 38A6 (antibody, V domains shown)
# VH: EVQLLESGGGLVQPGGSLRLSCAASGFTFSSYWMSWVRQAPGKGLEWVSAISGSGGSTYYADSVKGRFTISRDNSKNTLYLQMNSLRAEDTAVYYCASSPLQWVDVWGQGTTVTVSS
# VL: DIQMTQSPSSLSASVGDRVTITCRASQDISRWLGWYQQKPGKAPKLLIYAASTLQSGVPSRFSGSGSGTDFTLTISSLQPEDFATYYCQQANSFPFTFGPGTKLEIK
# notes: also called 780_46
# B2: R3A9 (antibody, V domains shown)
# VH: QVQLVQSGAEVKKPGASVKVSCKASGHTFTSYYIHWVRQAPGQGLEWMGIINPSGGSTSYAQKFQGRVTMTRDTSTSTVYMELSSLRSEDTAVYYCARDRAYGGAGDYWGQGTLVTVSS
# VL: DIQMTQSPSSLSASVGDRVTITCRASQSVGTWLAWYQQKPGKAPKLLIYSASTLQSGVPSRFSGSGSGTDFTLTISSLQPEDFATYYCQQSYSAPLTFGGGTKVEIK
# notes: also called 7115A; mPD1 parental (R3A9)
# What was measured:
# hPD-1-Fc [1] = target: T1, hPD-1-Fc (human, UniProt Q15116 25-167); experiment: SPR, Exp. 1
# T1 construct: domain: IgV domain; also called human PD-1-Fc; not shown: human IgG1 Fc
# hPD-1-his [2] = target: T2, hPD-1-his (human, UniProt Q15116 25-167); experiment: SPR, Exp. 1
# T2 construct: domain: IgV domain; monomer in solution; biotin-labelled where captured by streptavidin; also called biotin-hPD-1-his
# hPD-1-Fc [3] = target: T1, hPD-1-Fc; experiment: SPR, Exp. 2
# hPD-1-his [4] = target: T2, hPD-1-his; experiment: SPR, Exp. 2
# hPD-1-Fc [5] = target: T1, hPD-1-Fc; experiment: SPR, Exp. 3
# hPD-1-his [6] = target: T2, hPD-1-his; experiment: SPR, Exp. 3
# hPD-1-his [7] = target: T2, hPD-1-his; experiment: SPR, Exp. 4
# hPD-1-Fc [8] = target: T1, hPD-1-Fc; experiment: ELISA, PD-1-Fc coated
# hPD-1-Fc [9] = target: T1, hPD-1-Fc; experiment: ELISA, hPD-1-Fc coated
# [10] = target: T3, human PD-1 expressed on cells (human, UniProt Q15116 25-288); experiment: cell-based or functional assay
# hPD-1-his [11] = target: T2, hPD-1-his; experiment: ELISA, PD-1-his on anti-his
# hPD-1-his [12] = target: T2, hPD-1-his; experiment: ELISA, PD-1-his on anti-his; remark: listed apart in the source
# hPD-1-Fc [13] = target: T1, hPD-1-Fc; experiment: SPR, range over experiments
# hPD-1-Fc [14] = target: T1, hPD-1-Fc; experiment: blocking ELISA, PD-1 to PD-L1
# hPD-1-Fc [15] = target: T1, hPD-1-Fc; experiment: blocking ELISA, PD-1 to PD-L2
# [16] = target: T3, human PD-1 expressed on cells; experiment: flow cytometry, hPD1-293 cells
# hPD-1-his [17] = target: T2, hPD-1-his; experiment: ELISA, PD-1-his on streptavidin
# hPD-1-Fc [18] = target: T1, hPD-1-Fc; experiment: blocking ELISA, hPD-1 to hPD-L1; design: unit not given here
# [19] = target: T3, human PD-1 expressed on cells; experiment: flow cytometry, hPD-1-293 cells
# [20] = target: T3, human PD-1 expressed on cells; experiment: flow cytometry, hPD1-Jurkat cells
# [21] = target: T3, human PD-1 expressed on cells; experiment: flow cytometry, hPD-1-Jurkat cells
# hPD-1-Fc [22] = target: T1, hPD-1-Fc; experiment: SPR Biacore T200, PD-1-Fc immobilised
# hPD-1-his [23] = target: T2, hPD-1-his; experiment: SPR Biacore T200, PD-1-his immobilised
# hPD-1-his [24] = target: T2, hPD-1-his; experiment: ELISA, biotin-PD-1-his on streptavidin
# [25] = target: T3, human PD-1 expressed on cells; experiment: flow cytometry, activated PBMC donor FA
# [26] = target: T3, human PD-1 expressed on cells; experiment: flow cytometry, activated PBMC donor two
# [27] = target: T3, human PD-1 expressed on cells; experiment: flow cytometry, SEB-activated PBMC donor
# [28] = target: T3, human PD-1 expressed on cells; experiment: flow cytometry, SEB-activated PBMC donor two
# hPD-1-his [29] = target: T2, hPD-1-his; experiment: SPR (Biacore), hPD1his immobilised; lower end of the printed KD range over the experiments
# hPD-1-his [30] = target: T2, hPD-1-his; experiment: SPR (Biacore), hPD1his immobilised; upper end of the printed KD range over the experiments
# [31] = target: T4, mPD1 (soluble, ELISA of Examples 20 and 24) (mouse, UniProt Q02242 25-167, limits assumed); experiment: ELISA, mPD1
# T4 construct: also called Biotin-mPD1
# T4 sequence (looked up): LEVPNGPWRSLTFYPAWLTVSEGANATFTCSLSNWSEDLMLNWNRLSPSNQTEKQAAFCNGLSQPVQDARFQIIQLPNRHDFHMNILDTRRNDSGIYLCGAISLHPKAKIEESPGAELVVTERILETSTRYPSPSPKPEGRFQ
# mPD-1-Fc [32] = target: T5, mPD-1-Fc (mouse; human, UniProt Q02242 25-167, limits assumed); experiment: ELISA, mPD-1-Fc
# T5 construct: domain: IgV domain; not shown: human IgG1 Fc
# T5 sequence (looked up): T4 sequence (looked up)
# mPD-1-Fc [33] = target: T5, mPD-1-Fc; experiment: SPR Biacore, mPD1-Fc
# mPD-1-his [34] = target: T6, mPD-1-his (mouse, UniProt Q02242 25-167, limits assumed); experiment: SPR Biacore, mPD1-his
# T6 construct: domain: IgV domain
# T6 sequence: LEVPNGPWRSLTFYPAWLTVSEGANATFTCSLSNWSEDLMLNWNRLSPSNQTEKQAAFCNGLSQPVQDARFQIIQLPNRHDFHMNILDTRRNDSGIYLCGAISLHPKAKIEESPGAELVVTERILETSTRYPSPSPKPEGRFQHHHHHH
# [35] = target: T7, mouse PD-1 expressed on cells (mouse, UniProt Q02242 25-288); experiment: cell-based or functional assay
# T7 sequence (looked up): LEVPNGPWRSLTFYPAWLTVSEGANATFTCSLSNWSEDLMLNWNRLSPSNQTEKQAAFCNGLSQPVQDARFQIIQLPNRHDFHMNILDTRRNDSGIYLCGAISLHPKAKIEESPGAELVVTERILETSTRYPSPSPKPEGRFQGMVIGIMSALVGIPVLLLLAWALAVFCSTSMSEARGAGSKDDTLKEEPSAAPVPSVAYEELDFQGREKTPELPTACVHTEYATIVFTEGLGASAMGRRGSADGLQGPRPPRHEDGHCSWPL
# [36] = target: T4, mPD1 (soluble, ELISA of Examples 20 and …); experiment: blocking ELISA, mPD1 to mPDL1
# mPD-1-Fc [37] = target: T5, mPD-1-Fc; experiment: blocking ELISA, mPD-1 to PD-L1
# [38] = target: T7, mouse PD-1 expressed on cells; experiment: flow cytometry, mPD1-293 cells
# [39] = target: T7, mouse PD-1 expressed on cells; experiment: flow cytometry, mPD1-eff cells
# mPD-1-Fc [40] = target: T5, mPD-1-Fc; experiment: ELISA, mPD-1-Fc on streptavidin
# [41] = target: T7, mouse PD-1 expressed on cells; experiment: flow cytometry, mPD-1-293 cells
# mPD-1-his [42] = target: T6, mPD-1-his; experiment: ELISA, mPD-1-his on streptavidin
# [43] = target: T4, mPD1 (soluble, ELISA of Examples 20 and …); experiment: ELISA, biotin-mPD1 on streptavidin
# [44] = target: hPD1 (soluble, ELISA of Example 20) (human, UniProt Q15116 25-167, limits assumed); experiment: ELISA, hPD1; direct binding ELISA on hPD1 (EC50 row)
# Chain of hPD1 (soluble, ELISA of Example 20) (Q15116 25-167 limits assumed): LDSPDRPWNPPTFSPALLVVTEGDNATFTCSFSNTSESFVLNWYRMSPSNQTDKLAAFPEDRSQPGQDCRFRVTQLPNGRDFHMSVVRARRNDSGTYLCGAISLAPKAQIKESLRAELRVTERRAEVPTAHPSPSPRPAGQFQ
# T2 sequence (Q15116 other isoform, or with tags, fused parts or gaps limits assumed): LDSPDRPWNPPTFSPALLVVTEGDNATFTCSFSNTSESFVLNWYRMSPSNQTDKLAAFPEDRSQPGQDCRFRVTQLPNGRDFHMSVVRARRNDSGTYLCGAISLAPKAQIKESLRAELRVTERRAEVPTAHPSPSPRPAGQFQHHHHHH
# T3 sequence (Q15116 25-288): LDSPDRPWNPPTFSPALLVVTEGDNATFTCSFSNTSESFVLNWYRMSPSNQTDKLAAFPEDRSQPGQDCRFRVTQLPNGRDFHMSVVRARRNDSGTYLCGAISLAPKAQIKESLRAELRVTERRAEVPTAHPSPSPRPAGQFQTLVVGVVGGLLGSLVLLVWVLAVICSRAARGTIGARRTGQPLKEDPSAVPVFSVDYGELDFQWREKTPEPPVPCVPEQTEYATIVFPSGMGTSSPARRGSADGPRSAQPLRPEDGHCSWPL
# T1 sequence (Q15116 25-167 limits assumed): as the sequence (Q15116 25-167 limits assumed) above
binder,measurement,setting,value
B1,Kd,hPD-1-Fc [1],< 188 pM
same,Kd,hPD-1-his [2],2300 pM
same,Kd,hPD-1-Fc [3],< 136 pM
same,Kd,hPD-1-his [4],< 586 pM
same,Kd,hPD-1-Fc [5],< 301 pM
same,Kd,hPD-1-his [6],< 574 pM
same,Kd,hPD-1-his [7],< 90 pM
same,EC50,hPD-1-Fc [8],79 pM
same,OD at 10 nM,hPD-1-Fc [9],0.993 OD
same,"EC50, Promega blockade bioassay",[10],0.164 µg/mL
same,Fold induction,[10],5.66 fold
same,OD at 10 nM,hPD-1-his [11],0.576 OD
same,EC50,hPD-1-his [12],89 pM
same,Kd,hPD-1-Fc [13],140 to 300 pM
same,IC50,hPD-1-Fc [14],~2140 pM
same,Inhibition % at 50 nM,hPD-1-Fc [14],92.2%
same,"Inhibition, % at 5.56 nM",hPD-1-Fc [14],92%
same,IC50,hPD-1-Fc [15],2390 pM
same,"Inhibition, % at 3.7 nM",hPD-1-Fc [15],90.4%
same,"Inhibition, % at 100 nM",hPD-1-Fc [15],94.8%
same,EC50,[16],150 pM
same,MFI at 5 nM,[16],110 MFI
same,OD at 10 nM,hPD-1-his [17],0.948 OD
same,Inhibition at 50 nM,hPD-1-Fc [18],91.7
same,"MFI, 5 nM",[19],227 MFI
same,EC50,[20],210 pM
same,MFI at 5 nM,[20],89.5 MFI
same,"MFI, 5 nM",[21],59.9 MFI
same,Kd,hPD-1-Fc [22],477 pM
same,Kd,hPD-1-his [23],1180 pM
same,EC50,hPD-1-his [24],84 pM
same,EC50,[25],210 pM
same,MFI at 25 nM,[25],14.5 MFI
same,EC50,[26],170 pM
same,MFI at 25 nM,[26],15.9 MFI
same,"MFI, 5 nM",[27],65.2 MFI
same,"MFI, 5 nM",[28],54.7 MFI
same,Kd,hPD-1-his [29],≥ 900 pM
same,Kd,hPD-1-his [30],≤ 2300 pM
B2,EC50,[31],1360 pM
same,EC50,mPD-1-Fc [32],14600 pM
same,Kd,mPD-1-Fc [33],12100 pM
same,koff,mPD-1-Fc [33],0.0014 s⁻¹
same,kon,mPD-1-Fc [33],116000 M⁻¹ s⁻¹
same,Kd,mPD-1-his [34],15700 pM
same,koff,mPD-1-his [34],0.00641 s⁻¹
same,kon,mPD-1-his [34],409000 M⁻¹ s⁻¹
same,"IC 50, Promega assay",[35],1.62 µg/mL
same,IC50,[36],722 pM
same,IC50,mPD-1-Fc [37],441 pM
same,EC50,[38],314 pM
same,EC50,[39],645 pM
same,EC50,mPD-1-Fc [40],156 pM
same,EC50,[41],566 pM
same,EC50,mPD-1-his [42],1610 pM
same,EC50,[43],462 pM
same,EC50,[44],3250 pM
